Test results from patent US20190233528A1 (published 2019).

T1: recombinant human CD70 (AviTag, polyhistidine tag and chicken tenascin trimerization domain fused to the … (chicken; human, UniProt P10039 110-139, limits assumed)
T1 construct: domain: trimerization domain; Expressed in Expi293, purified by IMAC and SEC; Copies 3 is inferred from the trimerization domain; not shown: AviTag; polyhistidine tag
T1 sequence: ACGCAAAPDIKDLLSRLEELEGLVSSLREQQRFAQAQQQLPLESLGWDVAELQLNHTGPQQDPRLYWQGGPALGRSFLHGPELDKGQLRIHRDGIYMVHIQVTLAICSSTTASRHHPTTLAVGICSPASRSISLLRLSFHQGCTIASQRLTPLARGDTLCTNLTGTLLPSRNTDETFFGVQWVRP


molecular target: T1, recombinant human CD70 (AviTag, …); experiment: SPR (Biacore 8K, 37 C): CD70 captured via anti-AviTag antibody on C1 chip, scFv-Fc as analyte; 1:1 Langmuir fit
Description: The antibody binding kinetics were determined by surface plasmon resonance (Biacore 8K, GE Healthcare Bio-Sciences, Pittsburgh Pa.) at 37° C. in HBS-T+ (0.01 M HEPES pH 7.4, 0.15 M NaCl, 0.05% v/v Tween20, 1 mg/mL BSA). Recombinant human CD70 diluted in HBS-T+ was captured on a C1 chip immobilized with an anti-AviTag™ antibody. Purified anti-CD70 scFv-Fc fusions were serially diluted into HBS-T+, injected at 30 uL/min for 2-4 min, dissociation monitored for 10 min then the surface regenerated with 75 mM phosphoric acid between injections. Buffer cycles were collected for each anti-CD70 scFv-Fc fusion for double-referencing purposes (double-referencing as described in Myszka, D. G. Improving biosensor analysis. J. Mol. Recognit. 12, 279-284 (1999)). Kinetic association rates (kₒₙ) and dissociation rates (koff) were obtained simultaneously by fitting the double-referenced sensorgrams globally to a 1:1 Langmuir with mass transport model using Biacore 8K Evaluation Software (GE Healthcare Bio-Sciences, Pittsburgh Pa.) then used to calculate an equilibrium dissociation constant (KD) from the kinetic rate constants (KD=koff/kₒₙ). The data was fit to a 1:1 steady state affinity model using Biacore 8K Evaluation Software to determine a steady state equilibrium dissociation constant (SS KD) as needed.

Kd [nM]	koff [s⁻¹]	kon [M⁻¹ s⁻¹]	t1/2 [min]	Binder
0.8	0.000186	224000	62.2	11C1 anti-CD70 scFv-Fc fusion (Fc fusion, scFv-Fc expressed in Expi293; not shown: part of the hinge and Fc from a modified human IgG2) QVQLQESGPGLVKPSETLSLNCTVSGGSISYYYWTWIRQPPGKGLEWIGHVIYSGTTNYNPSLKSRVTISVDTSKNQFSLKLNSVTAADTAVYYCVRAEGSLDAFDLWGQGTMVTVSSGGGGSGGGGSGGGGSGGGGSDIQMTQSPSILSASVGDRVTITCRASQSVSSWLAWYQQKPGKAPKVLIYKASSLESGVPSRFSGTGSGTEFTLTISSLQSDDFATYYCQQYNTYSHTFGQGTKLEIK
10.7	0.0153	1.44e+06	0.8	P08F08 anti-CD70 scFv-Fc fusion (Fc fusion, scFv-Fc expressed in Expi293; not shown: part of the hinge and Fc from a modified human IgG2) EVQLVQSGAEVKKPGESLKISCKGSGYGFTSYWIGWVRQMPGKGLEWMGIIHPDDSDTKYSPSFQGQVTISADKSISTAYLQWSSLKASDTAMYYCASSYLRGLWGGYFDYWGQGTLVTVSSGGGGSGGGGSGGGGSGGGGSELQSVLTQPPSASGTPGQRVTISCSGSSSNIGSNYVNWYQQLPGTAPKLLIYGDYQRPSGVPDRFSGSKSGTSASLAISGLRSEDEADYYCATRDDSLSGSVVFGTGTKLTVL
4.1	0.00135	330000	8.6	P12B09 anti-CD70 scFv-Fc fusion (Fc fusion, scFv-Fc expressed in Expi293; not shown: part of the hinge and Fc from a modified human IgG2) EVQLLESGGGLVQPGGSLRLSCAASGFTFSQYSMSWVRQAPGKGLEWVSAISGGGVSTYYADSVKGRFTISRDNSKNTLYLQMNSLRAEDTAVYYCASDISDSGGSHWYFDYWGQGTLVTVSSGGGGSGGGGSGGGGSGGGGSELDIQMTQSPSSLSASVGDRVTITCRASQYIGRYLNWYQQKRGKAPKLLIHGATSLASGVPSRFSGSGSGTDFTLTISSLQPEDFATYYCQQSYSTTSPTFGQGTKVEIK
330	0.00788	23900	1.5	P08G02 anti-CD70 scFv-Fc fusion (Fc fusion, scFv-Fc expressed in Expi293; not shown: part of the hinge and Fc from a modified human IgG2) EVQLVQSGAEVKKPGESLKISCKGSGYTFPSSWIGWVRQMPGKGLEWMGIIYPDTSHTRYSPSFQGQVTISADKSISTAYLQWSSLKASDTAMYYCARASYFDRGTGYSSWWMDVWGQGTLVTVSSGGGGSGGGGSGGGGSGGGGSELDIQMTQSPSSLSASVGDRVTITCRASQSIYDYLHWYQQKPGKAPKLLIYDASNLQSGVPSRFSGSGSGTDFTLTISSLQPEDFATYYCQQSYTTPLFTFGQGTKVEIK
5.3	0.00438	823000	2.6	P08E02 anti-CD70 scFv-Fc fusion (Fc fusion, scFv-Fc expressed in Expi293; not shown: part of the hinge and Fc from a modified human IgG2) EVQLVQSGAEVKKPGESLKISCKGSGYSFTSSWIGWVRQMPGKGLEWMGIIYPGDSDTRYSPSFQGQVTISADKSISTAYLQWSSLKASDTAMYYCAKGLSQAMTGFGFDYWGQGTLVTVSSGGGGSGGGGSGGGGSGGGGSELDIQMTQSPSSLSASVGDRVTITCRASQSISRYLNWYQQKPGKAPKLLIYAASILQTGVPSRFSGSGSGTDFTLTISSLQPEDFATYYCQQSYSTTMWTFGQGTKVEIK
69.3	0.0032	46200	3.6	10H10 anti-CD70 scFv-Fc fusion (Fc fusion, scFv-Fc expressed in Expi293; not shown: part of the hinge and Fc from a modified human IgG2) EVQLVESGGGLVQPGGSLRLSCAVSGFTFSNHNIHWVRQAPGKGLEWISYISRSSSTIYYADSVKGRFTISRDNAKNSLYLQMNSLRDEDTAVYYCARDHAQWYGMDVWGQGTTVTVSSGGGGSGGGGSGGGGSGGGGSDIQMTQSPSSVSASVGDRVTITCRASQGISSWLAWYQQKPGKAPKVLIYAASSLQSGVPSRFSGSGSGTDFTLTISSLQPEDFATYYCQQAFSFPFTFGPGTKVDIK
1.3	0.000773	577000	14.9	10A1 anti-CD70 scFv-Fc fusion (Fc fusion, scFv-Fc expressed in Expi293; not shown: part of the hinge and Fc from a modified human IgG2) QVQLQESGPGLVKPSETLSLTCTVSGGSISYYYWTWIRQPPGKGLEWIGHIYYSGSTNYNPSLKSRVTISIDTSKNLFSLKLSSVTAADTAVYYCARAEGSLDAFDFWGQGTMVTVSSGGGGSGGGGSGGGGSGGGGSDIQMTQSPSTLSASVGDRVTITCRASQSISTWLAWYQQKPGKAPKVLIYKASSLESGVPSRFSGSGSGTEFILTINSLQPDDFASYYCQQYKSYSHTFGQGTKLEIK
27.3	0.00194	71200	5.9	12D6 anti-CD70 scFv-Fc fusion (Fc fusion, scFv-Fc expressed in Expi293; not shown: part of the hinge and Fc from a modified human IgG2) QVQLQESGPGLVKPSQTLSLTCTVSGGSISSDAYYWSWIRQHPGKGLEWIGYMYYSGITYYNPSLKSRVTISVDTSKNQFSLKLSSVTAADTAVYYCARDFGWYFDLWGRGTLVTVSSGGGGSGGGGSGGGGSGGGGSDIQMTQSPSSLSASVGDRVTITCRASQDISNYLAWYQQKPGKVPKLLIYAASTLHSGVPSRFSGSGSGTDFTLTISSLQPDDFAAYYCQKYNSAPRTFGQGTKVEIK
2.6	0.00212	825000	5.4	9E10 anti-CD70 scFv-Fc fusion (Fc fusion, scFv-Fc expressed in Expi293; not shown: part of the hinge and Fc from a modified human IgG2) QVQLVQSGAEVTKPGASVKVSCKASGYTFTSHYIYWVRQAPGQGLEWMGWINPNSGGTNYAQKFQDRVTMARDTSISTAYMELSRLRSDDTAVYYCAKDRKREYYYNFGMDVWGQGTTVTVSAGGGGSGGGGSGGGGSGGGGSDIQMTQSPSSLSASVGDRVILTCQASQDISNYLHWYQQKPGKAPKLLIYDASDLETGVPSRFSGSGSGADFTFTISNLQPEDFATYYCQQYDHLPITFGQGTRLEIK
0.3	0.000455	1.56e+06	25.3	12C4 anti-CD70 scFv-Fc fusion (Fc fusion, scFv-Fc expressed in Expi293; not shown: part of the hinge and Fc from a modified human IgG2) QVQLVQSGAEVKKPGASVKVSCKASGYTFTGYYLHWVRQAPGQGLEWMGWINPNSGGTNYAQKFQGRVTMTRDTSITTAYMELSRLRIDDTAVYYCARDRGVTMIVDGMDDWGQGTTVTVSSGGGGSGGGGSGGGGSGGGGSDIVMTQSPLSLPVTPGEPASISCRSSQSLLHSNGYNYLDWYLQKPGQSPQVLILLGSNRASGVPDRVSASGSGTDFTLKISRMQAEDVGIYYCMQTLQTPFTFGQGTKLEIK
1.7	0.001	578000	11.6	11E1 anti-CD70 scFv-Fc fusion (Fc fusion, scFv-Fc expressed in Expi293; not shown: part of the hinge and Fc from a modified human IgG2) QVQLQESGPGLVKPLQTLSLTCTVSGGSISSDGYYWSWIRQNPGKGLEWIGYMYYSGSTYYNPSLKSRVTISVDTSKNQFSLKLRSVTAADTAVYYCTRDFGWYFDLWGRGTLVTVSSGGGGSGGGGSGGGGSGGGGSDIQMTQSPSSLSASVGDSITITCRASQDIDNYLAWYQQKTGKVPKVLIYAASALQSGVPSRFSGSGSGTDFTLTISSLQPEDVATYYCQNYNSGPRTFGQGTKVEIK
1.7	0.000755	441000	15.3	12D7 anti-CD70 scFv-Fc fusion (Fc fusion, scFv-Fc expressed in Expi293; not shown: part of the hinge and Fc from a modified human IgG2) QVQLVESGGGVVQPGRSLRLSCVASGFTFSDYGIHWVRQAPGMGQEWVAVIWYDGSIKKYSDSVKGRFIISRDNSENTVYLQMNSLRGEDTAIYYCARDEVGTFGAFDFWGQGTKVTVSSGGGGSGGGGSGGGGSGGGGSDIQLTQSPSFLSASVGDRVSITCRASQDISSFLAWYQQKPGKAPVLLIYVASTLQSGVPSRFSGSGSGTEFTLTVSSLQPEDFATYYCQQLHVYPITFGQGTRLEIR
< 0.3	< 8.05e-05	286000	> 136	P15D02 anti-CD70 scFv-Fc fusion (Fc fusion, scFv-Fc expressed in Expi293; not shown: part of the hinge and Fc from a modified human IgG2) EVQLVQSGAEVKKPGESLKISCKGSGYSFASYWIGWVRQMPGKGLEWMGVIYPGTSETRYSPSFQGQVTISADKSISTAYLQWSSLKASDTAMYYCAKGLSASASGYSFQYWGQGTLVTVSSGGGGSGGGGSGGGGSGGGGSELDIQMTQSPSSLSASVGDRVTITCRASQSIDTYLNWYQQKPGKAPKLLIYSASSLHSGVPSRFSGSGSGTDFTLTISSLQPEDFATYYCQQSYSTTAWTFGQGTKVEIK
1.9	0.0016	825000	7.2	4F11 anti-CD70 scFv-Fc fusion (Fc fusion, scFv-Fc expressed in Expi293; not shown: part of the hinge and Fc from a modified human IgG2) QVTLKESGPVLVKPTETLTLTCTVSGFSLSNARMGVTWIRQPPGKALEWLAHIFSNDEKSYSTSLKSRLTISKDTSKTQVVLTMTNMDPVDTATYYCARIRDYYDISSYYDYWGQGTLVSVSSGGGGSGGGGSGGGGSGGGGSDIQMTQSPSAMSASVGDRVTITCRASQDISNYLAWFQQKPGKVPKRLIYAASSLQSGVPSRFSGSGSGTEFTLTISSLLPEDFATYYCLQLNSFPFTFGGGTKVEIN
15.4	0.00159	103000	7.3	8C8 anti-CD70 scFv-Fc fusion (Fc fusion, scFv-Fc expressed in Expi293; not shown: part of the hinge and Fc from a modified human IgG2) EVQLVESGGGLVKPGGSLRLSCVASGFTFSSYSMNWVRQFPGKGLEWVSSISTSSNYIHYADSLQGRFTISRDNAKNSLYLQMSSLRVEDTAVYYCVRDKGTTLTNWYFDLWGRGTLVTVSSGGGGSGGGGSGGGGSGGGGSDMQMTQSPSSLSASVGDRVTLTCRASQGISNYLAWFQLKPGKVPKLLIYAASTLQSGVPSRFSGSGSGTDFALTISSLQPEDVATYYCQKYNSAPLTFGGGTKVEIK
